# Laboratory results: patent US20250250355A1 (BIOSION, published 2025)
# Where two headings read alike, the source gives them in different places.
# T1: cynomolgus SIRPα-his protein (cynomolgus)
# T1 construct: also called Cyno SIRPα-his; monkey SIRPα
# T1 chain: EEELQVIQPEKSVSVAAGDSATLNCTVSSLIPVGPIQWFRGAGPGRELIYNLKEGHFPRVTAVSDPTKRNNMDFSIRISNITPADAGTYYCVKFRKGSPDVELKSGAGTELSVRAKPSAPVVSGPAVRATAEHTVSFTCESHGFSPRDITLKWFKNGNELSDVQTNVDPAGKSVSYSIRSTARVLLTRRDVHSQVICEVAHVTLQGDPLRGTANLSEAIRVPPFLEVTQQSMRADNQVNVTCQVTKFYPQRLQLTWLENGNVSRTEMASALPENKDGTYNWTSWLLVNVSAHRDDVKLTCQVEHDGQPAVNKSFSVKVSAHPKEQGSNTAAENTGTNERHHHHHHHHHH
# T2: mouse SIRPα-his (mouse, UniProt P97797 35-363, limits assumed)
# T2 chain: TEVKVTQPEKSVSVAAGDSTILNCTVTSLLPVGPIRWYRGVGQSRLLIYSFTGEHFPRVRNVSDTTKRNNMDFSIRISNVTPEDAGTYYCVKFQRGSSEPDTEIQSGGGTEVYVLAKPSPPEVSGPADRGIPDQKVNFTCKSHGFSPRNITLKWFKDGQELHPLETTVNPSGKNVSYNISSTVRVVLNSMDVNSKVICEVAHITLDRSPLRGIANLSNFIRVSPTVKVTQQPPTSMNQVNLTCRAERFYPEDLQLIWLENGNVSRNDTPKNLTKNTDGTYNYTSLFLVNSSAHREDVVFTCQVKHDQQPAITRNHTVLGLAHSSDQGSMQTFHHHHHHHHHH
# Legend:
# [1] = target: T3, recombinant human SIRPα-Fc protein (human, biotin-labeled (sites not given)); assay: capture ELISA, antibody captured on anti-mouse IgG F(ab')2, biotin-labeled human SIRPα-Fc in solution, OD(450-630)
# T3 construct: also called biotin-labeled human SIRPα-Fc protein
# T3 sequence (chain, as listed by the source limits assumed): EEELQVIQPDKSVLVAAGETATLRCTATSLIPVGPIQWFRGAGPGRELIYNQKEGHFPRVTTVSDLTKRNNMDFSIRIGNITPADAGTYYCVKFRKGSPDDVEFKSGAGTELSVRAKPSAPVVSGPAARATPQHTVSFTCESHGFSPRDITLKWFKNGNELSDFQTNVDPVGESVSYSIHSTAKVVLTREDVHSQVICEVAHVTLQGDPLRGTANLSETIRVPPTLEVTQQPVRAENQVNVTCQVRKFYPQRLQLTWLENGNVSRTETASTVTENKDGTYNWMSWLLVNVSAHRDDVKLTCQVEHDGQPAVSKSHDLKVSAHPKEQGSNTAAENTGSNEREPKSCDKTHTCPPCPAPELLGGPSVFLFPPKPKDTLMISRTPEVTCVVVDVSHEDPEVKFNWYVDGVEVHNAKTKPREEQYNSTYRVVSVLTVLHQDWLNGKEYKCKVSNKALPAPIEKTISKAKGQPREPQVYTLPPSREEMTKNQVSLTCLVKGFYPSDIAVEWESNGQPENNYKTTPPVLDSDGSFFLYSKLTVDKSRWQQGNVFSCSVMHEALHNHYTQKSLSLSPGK
# [2] = target: T1, cynomolgus SIRPα-his protein; assay: indirect ELISA on coated cynomolgus SIRPα-his, OD(450-630); curve rises only above about 3 nM, to OD about 0.9 at the last point, no plateau
# [3] = target: T4, full length human SIRPα on cell membranes (HEK293-SIRPα cells; 293F-SIRPα cells) (human, UniProt P78324 31-504); assay: cell based blocking FACS on 293F-SIRPα cells; blocked ligand: biotin-labeled human CD47-Fc, MFI
# T4 construct: whole, on cells; also called cell surface human SIRPα; cell surface SIRPα
# T4 sequence (P78324 31-504): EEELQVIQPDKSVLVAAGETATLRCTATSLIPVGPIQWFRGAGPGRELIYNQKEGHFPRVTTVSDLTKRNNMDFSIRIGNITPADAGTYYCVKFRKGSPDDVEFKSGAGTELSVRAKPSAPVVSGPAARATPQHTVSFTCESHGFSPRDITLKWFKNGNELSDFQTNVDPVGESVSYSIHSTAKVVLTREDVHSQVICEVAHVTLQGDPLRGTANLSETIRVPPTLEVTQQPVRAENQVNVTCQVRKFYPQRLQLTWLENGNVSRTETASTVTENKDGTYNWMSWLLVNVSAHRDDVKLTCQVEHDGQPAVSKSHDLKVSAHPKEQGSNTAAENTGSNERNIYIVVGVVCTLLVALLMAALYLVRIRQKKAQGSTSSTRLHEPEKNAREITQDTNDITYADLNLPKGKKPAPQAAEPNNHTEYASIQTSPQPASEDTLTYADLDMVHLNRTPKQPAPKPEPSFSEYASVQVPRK
# [4] = target: human SIRPα-isoform 2-his protein (human); assay: indirect ELISA on coated human SIRPα-isoform 2-his, OD(450-630)
# Chain of human SIRPα-isoform 2-his protein (human) (chain, as listed by the source limits assumed): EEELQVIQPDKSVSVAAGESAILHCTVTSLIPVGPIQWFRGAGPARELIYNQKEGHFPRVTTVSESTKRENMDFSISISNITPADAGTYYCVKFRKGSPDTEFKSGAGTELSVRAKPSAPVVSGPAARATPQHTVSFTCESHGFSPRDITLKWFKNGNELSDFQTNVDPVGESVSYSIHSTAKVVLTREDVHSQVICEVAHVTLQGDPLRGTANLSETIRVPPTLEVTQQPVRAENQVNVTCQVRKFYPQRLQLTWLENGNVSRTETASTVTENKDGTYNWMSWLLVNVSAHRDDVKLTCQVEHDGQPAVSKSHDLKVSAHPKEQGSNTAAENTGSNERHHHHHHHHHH
# [5] = target: T4, full length human SIRPα on cell …; assay: cell based binding FACS on HEK293-SIRPα cells, MFI
# human SIRPα-his protein [6] = target: T5, human SIRPα-his protein (human, UniProt P78324 31-370); assay: competitive ELISA on coated human SIRPα-his; blocked ligand: biotin-labeled human CD47-his, OD(450-630)
# T5 sequence (P78324 other isoform, or with tags, fused parts or gaps limits assumed): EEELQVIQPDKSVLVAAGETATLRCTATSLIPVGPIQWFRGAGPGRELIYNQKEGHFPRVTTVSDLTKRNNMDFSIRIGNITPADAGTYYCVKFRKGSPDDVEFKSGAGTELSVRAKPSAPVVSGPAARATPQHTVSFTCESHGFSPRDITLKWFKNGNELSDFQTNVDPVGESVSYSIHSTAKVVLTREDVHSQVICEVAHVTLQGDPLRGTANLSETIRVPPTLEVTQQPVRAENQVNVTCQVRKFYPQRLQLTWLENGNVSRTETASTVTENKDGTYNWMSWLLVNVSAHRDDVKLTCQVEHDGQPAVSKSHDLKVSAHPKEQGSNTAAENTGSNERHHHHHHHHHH
# [7] = target: T6, full length human SIRPγ endogenously expressed on Jurkat cells (human, UniProt Q9P1W8 29-387); assay: cell based binding FACS on Jurkat cells (endogenous human SIRPγ), MFI; curve flat near MFI 0 (see non_binding)
# T6 construct: whole, on cells; also called human SIRPγ expressed on Jurkat cells
# T6 sequence (Q9P1W8 29-387): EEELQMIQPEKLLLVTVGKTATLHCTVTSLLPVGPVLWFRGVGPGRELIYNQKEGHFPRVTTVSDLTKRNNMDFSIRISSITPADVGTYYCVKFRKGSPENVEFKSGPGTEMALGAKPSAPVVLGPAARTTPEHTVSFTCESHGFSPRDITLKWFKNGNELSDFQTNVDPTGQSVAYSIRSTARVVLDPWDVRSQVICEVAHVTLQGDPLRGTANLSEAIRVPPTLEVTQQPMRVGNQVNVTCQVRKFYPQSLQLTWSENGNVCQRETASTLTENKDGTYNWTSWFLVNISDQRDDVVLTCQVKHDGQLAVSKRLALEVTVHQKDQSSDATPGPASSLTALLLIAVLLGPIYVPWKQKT
# [8] = target: T7, full length human SIRPβ on cell membranes (HEK293-SIRPβ cells; 293F cells expressing human SIRPβ) (human, UniProt O00241 30-398); assay: cell based binding FACS on HEK293-SIRPβ cells, MFI
# T7 construct: whole, on cells; also called cell surface human SIRPβ
# T7 sequence (O00241 30-398): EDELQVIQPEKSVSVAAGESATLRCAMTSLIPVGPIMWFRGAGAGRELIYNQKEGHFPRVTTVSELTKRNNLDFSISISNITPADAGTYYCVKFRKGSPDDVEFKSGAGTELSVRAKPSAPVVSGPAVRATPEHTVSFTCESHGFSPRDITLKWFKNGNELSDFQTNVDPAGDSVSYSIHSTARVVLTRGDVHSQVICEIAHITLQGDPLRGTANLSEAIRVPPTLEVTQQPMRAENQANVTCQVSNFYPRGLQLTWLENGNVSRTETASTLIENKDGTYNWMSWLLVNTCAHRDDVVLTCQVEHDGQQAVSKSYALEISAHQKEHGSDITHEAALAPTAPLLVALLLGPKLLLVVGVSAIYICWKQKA
# human SIRPα-his protein [9] = target: T5, human SIRPα-his protein; assay: SPR (Biacore T200); antibody captured on Protein A chip, human SIRPα-his flowed from 200 nM; 1:1 Langmuir fit
# [10] = target: human SIRPα-V8-his protein (human, UniProt P78324 31-370, limits assumed); assay: indirect ELISA on coated human SIRPα-V8-his, OD(450-630)
# Chain of human SIRPα-V8-his protein (P78324 other isoform, or with tags, fused parts or gaps limits assumed): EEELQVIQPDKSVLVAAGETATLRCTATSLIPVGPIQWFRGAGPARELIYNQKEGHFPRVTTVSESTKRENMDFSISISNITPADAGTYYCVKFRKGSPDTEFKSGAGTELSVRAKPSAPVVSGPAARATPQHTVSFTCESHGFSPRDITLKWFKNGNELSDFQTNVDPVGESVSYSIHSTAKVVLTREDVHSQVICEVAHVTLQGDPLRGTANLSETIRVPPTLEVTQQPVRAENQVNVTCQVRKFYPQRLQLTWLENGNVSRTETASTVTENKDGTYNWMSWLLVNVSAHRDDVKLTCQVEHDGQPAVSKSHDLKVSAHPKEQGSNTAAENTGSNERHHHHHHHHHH
# human SIRPβ-his protein = human SIRPβ-his protein (human, UniProt O00241 30-371); assay: SPR (Biacore T200), antibody captured on Protein A chip, human SIRPβ-his flowed
# Chain of human SIRPβ-his protein (O00241 other isoform, or with tags, fused parts or gaps limits assumed): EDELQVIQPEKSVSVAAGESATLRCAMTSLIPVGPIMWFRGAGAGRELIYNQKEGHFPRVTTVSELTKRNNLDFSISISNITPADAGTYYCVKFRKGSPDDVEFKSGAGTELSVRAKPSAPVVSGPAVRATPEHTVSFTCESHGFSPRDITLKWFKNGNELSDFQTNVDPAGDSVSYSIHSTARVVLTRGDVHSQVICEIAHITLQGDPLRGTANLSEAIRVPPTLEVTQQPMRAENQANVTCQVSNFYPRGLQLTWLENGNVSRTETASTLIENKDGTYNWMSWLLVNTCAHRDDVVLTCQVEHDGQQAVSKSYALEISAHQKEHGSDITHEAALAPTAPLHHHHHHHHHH
# [11] = target: T6, full length human SIRPγ endogenously …; assay: cell based binding FACS on Jurkat cells (endogenous human SIRPγ), MFI
# [12] = target: T7, full length human SIRPβ on cell …; assay: cell based binding FACS on 293F cells expressing human SIRPβ, MFI
# [13] = target: T1, cynomolgus SIRPα-his protein; assay: indirect ELISA on coated cynomolgus SIRPα-his, OD(450-630)
# [14] = target: T8, human FcRn protein (Cat #FCM-H5286, Acro biosystems Inc.) (human, UniProt P55899 24-297; P61769 21-119); assay: SPR (Biacore); human FcRn covalently linked to CM5 chip, antibody flowed from 62.5 µg/ml; pH 7.4
# T8 sequence (P55899 24-297 limits assumed, chain 1 of 2): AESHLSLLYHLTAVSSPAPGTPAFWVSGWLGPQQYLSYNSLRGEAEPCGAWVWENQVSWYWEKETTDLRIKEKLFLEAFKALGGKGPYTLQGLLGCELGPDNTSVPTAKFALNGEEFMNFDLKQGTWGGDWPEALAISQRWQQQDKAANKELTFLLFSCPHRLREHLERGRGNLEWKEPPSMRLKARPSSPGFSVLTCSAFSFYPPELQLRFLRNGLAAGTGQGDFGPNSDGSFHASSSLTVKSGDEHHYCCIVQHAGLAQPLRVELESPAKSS
# T8 sequence (P61769 21-119 limits assumed, chain 2 of 2): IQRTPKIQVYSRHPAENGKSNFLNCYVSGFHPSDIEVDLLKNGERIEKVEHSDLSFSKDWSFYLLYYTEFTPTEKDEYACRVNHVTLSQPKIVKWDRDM
# [15] = target: human SIRPα-isoform 2-his protein (human); assay: indirect ELISA on coated human SIRPα-isoform 2-his, OD(450-630); remark: listed apart in the source
# mouse SIRPα-his = target: T2, mouse SIRPα-his; assay: indirect ELISA on coated mouse SIRPα-his, OD(450-630)
# human SIRPγ-his protein = human SIRPγ-his protein (human, UniProt Q9P1W8 29-360, limits assumed); assay: SPR (Biacore T200), antibody captured on Protein A chip, human SIRPγ-his flowed
# Chain of human SIRPγ-his protein (Q9P1W8 29-360 limits assumed): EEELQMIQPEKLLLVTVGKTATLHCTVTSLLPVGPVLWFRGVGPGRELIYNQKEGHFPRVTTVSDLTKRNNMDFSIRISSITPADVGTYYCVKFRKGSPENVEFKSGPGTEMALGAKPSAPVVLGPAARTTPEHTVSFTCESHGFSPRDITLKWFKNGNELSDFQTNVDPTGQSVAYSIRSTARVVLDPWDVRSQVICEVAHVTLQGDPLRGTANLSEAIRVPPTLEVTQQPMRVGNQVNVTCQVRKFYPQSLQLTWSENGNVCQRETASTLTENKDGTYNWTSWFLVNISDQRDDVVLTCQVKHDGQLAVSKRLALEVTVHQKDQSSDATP
# [16] = target: human SIRPα protein (soluble, used on 293F-CD47 cells) (human, UniProt P78324 31-370, limits assumed); assay: cell based blocking FACS on 293F-CD47 cells; soluble human SIRPα protein blocked from binding cell surface human CD47, MFI
# Chain of human SIRPα protein (soluble, used on 293F-CD47 cells) (P78324 31-370 limits assumed): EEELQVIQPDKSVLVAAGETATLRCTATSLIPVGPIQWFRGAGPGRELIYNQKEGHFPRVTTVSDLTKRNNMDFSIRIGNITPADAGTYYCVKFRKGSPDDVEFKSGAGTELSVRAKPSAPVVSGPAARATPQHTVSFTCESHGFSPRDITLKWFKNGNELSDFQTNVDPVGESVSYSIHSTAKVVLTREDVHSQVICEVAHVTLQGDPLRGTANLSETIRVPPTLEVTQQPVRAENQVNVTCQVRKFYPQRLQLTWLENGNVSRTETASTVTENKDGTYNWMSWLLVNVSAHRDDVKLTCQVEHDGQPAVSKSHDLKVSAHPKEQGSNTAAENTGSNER
# [17] = target: T8, human FcRn protein (Cat #FCM-H5286, …); assay: SPR (Biacore); human FcRn covalently linked to CM5 chip, antibody flowed from 62.5 µg/ml; pH 6.0
# [18] = target: T1, cynomolgus SIRPα-his protein; assay: SPR (Biacore T200); antibody captured on Protein A chip, cynomolgus SIRPα-his flowed from 200 nM; 1:1 Langmuir fit
# [19] = target: T4, full length human SIRPα on cell …; assay: cell based blocking FACS on 293F-SIRPα cells; blocked ligand: human CD47 protein (CD47-Fc), MFI
# [20] = target: T4, full length human SIRPα on cell …; assay: cell based binding FACS on 293F cells expressing human SIRPα, MFI
# [21] = target: T8, human FcRn protein (Cat #FCM-H5286, …); assay: SPR (Biacore); human FcRn covalently linked to CM5 chip, antibody flowed from 62.5 µg/ml; pH 6.0; pH 6.0
# [22] = target: T7, full length human SIRPβ on cell …; assay: cell based binding FACS on HEK293-SIRPβ cells, MFI; plateau at MFI about 1300
# [23] = target: T1, cynomolgus SIRPα-his protein; assay: indirect ELISA on coated cynomolgus SIRPα-his, OD(450-630)
Binder,EC50 [1],IC50 [3],EC50 [4],EC50 [5],IC50 (human SIRPα-his protein [6]),EC50 [7],Kd (human SIRPα-his protein [9]),koff (human SIRPα-his protein [9]),kon (human SIRPα-his protein [9]),EC50 [10],binding result (human SIRPβ-his protein),binding result [11],EC50 [12],EC50 [13],EC50 [15],binding result (mouse SIRPα-his),binding result (human SIRPγ-his protein),IC50 [16],Kd [18],koff [18],further results
"E1F1B1C3 (antibody, V domains shown) VH: QVQLVQSGAEVKKPGASVKVSCKASGYTFTSNAMHWVRQVPGQGLEWMGWIKAGNGEIKYSQKFQGRVTITRDTSATTAYMELSSLRSEDTAVYYCARGDYYYYYMDVWGKGTTVTVSS VL: DIQVTQSPSSLSASVGDRVTITCRASQSISDFLNWYQQKPGKAPKLLIHAASSLQNGVPSRFSGSGSGTDFSLTINSLQPEDFATYYCQQSYSTPLSFGGGTKVEIK",49.1 pM,146 pM,106 pM,303 pM,2130 pM,106000 pM,–,–,–,–,–,–,–,–,–,–,–,–,–,–,EC50 [2]: 48100 pM; EC50 [8]: 217 pM
E1H10B7-CDRV1-IgG1 (YTE) (antibody) heavy: QVQLVQSGAEVKKPGASVKVSCKASGYTFTSYAMQWVRQAPGQRLEWMGWIIAGNADTKYSQNFQDRVTLTRDTSANTAYMDLSGLRSEDTAVYYCARGSGFSGYGYFDKWGQGTLVTVSSASTKGPSVFPLAPSSKSTSGGTAALGCLVKDYFPEPVTVSWNSGALTSGVHTFPAVLQSSGLYSLSSVVTVPSSSLGTQTYICNVNHKPSNTKVDKKVEPKSCDKTHTCPPCPAPEAQGGPSVFLFPPKPKDTLYITREPEVTCVVVDVSHEDPEVKFNWYVDGVEVHNAKTKPREEQYNSTYRVVSVLTVLHQDWLNGKEYKCQVSNKALPAPIEKTISKAKGQPREPQVYTLPPSRDELTKNQVSLTCLVKGFYPSDIAVEWESNGQPENNYKTTPPVLDSDGSFFLYSKLTVDKSRWQQGNVFSCSVMHEALHNHYTQKSLSLSPG light: DIQMTQSPSSLSASVGDRVTITCRASHSISSYLNWYQQKPGKVPKLLIYASSSLQSGVPSRFSGSGSGTDFTLIISSLQPEDFATYYCQQSHSIPLTFGGGTKVEIKRTVAAPSVFIFPPSDEQLKSGTASVVCLLNNFYPREAKVQWKVDNALQSGNSQESVTEQDSKDSTYSLSSTLTLSKADYEKHKVYACEVTHQGLSSPVTKSFNRGEC,–,–,–,–,–,–,14600 pM,0.00188 s⁻¹,129000 M⁻¹ s⁻¹,141 pM,no binding,no binding (tested: ~67 nM),1470 pM,209 pM,173 pM,no binding (tested: ~67 nM),no binding (tested: antigen starting at 200 nM),368 pM,553000 pM,0.0146 s⁻¹,Kd [14]: 129000 pM; Kd [17]: 28800 pM; kon [18]: 26400 M⁻¹ s⁻¹; IC50 [19]: 2620 pM; EC50 [20]: 956 pM
E1H10B7-CDRV1-IgG1 (antibody) heavy: not shown light: DIQMTQSPSSLSASVGDRVTITCRASHSISSYLNWYQQKPGKVPKLLIYASSSLQSGVPSRFSGSGSGTDFTLIISSLQPEDFATYYCQQSHSIPLTFGGGTKVEIKRTVAAPSVFIFPPSDEQLKSGTASVVCLLNNFYPREAKVQWKVDNALQSGNSQESVTEQDSKDSTYSLSSTLTLSKADYEKHKVYACEVTHQGLSSPVTKSFNRGEC,–,–,–,–,–,–,8780 pM,0.00118 s⁻¹,134000 M⁻¹ s⁻¹,151 pM,no binding,no binding (tested: ~67 nM),1230 pM,224 pM,184 pM,no binding (tested: ~67 nM),no binding (tested: antigen starting at 200 nM),347 pM,376000 pM,0.0132 s⁻¹,Kd [21]: 94100 pM; kon [18]: 35000 M⁻¹ s⁻¹; IC50 [19]: 2300 pM; EC50 [20]: 973 pM
"E1D5E1F1 (antibody, V domains shown, Purified from a hybridoma of AceMouse mice: human heavy and light chain variable regions with mouse constant regions) VH: QVQLVQSGAEVKKPGASVKVSCKASGYTFTSFAMQWVRRAPGQRLEWMGWIIAGNGDTKYSQNFQDRVTLTRDTSANTAYMDLSGLRSEDTAVYYCARGSGFSGYGYFDKWGQGTLVTVSS VL: DIQMTQSPSSLSASVGDRVTITCRASHSISSYLNWYQQKPGKVPKLLIYASSSLQSGVPSRFSGNGSGTDFTLIISSLQPEDFATYYCQQSHSIPLTFGGGTKVEIK",71.5 pM,706 pM,119 pM,927 pM,2180 pM,630 pM,–,–,–,–,–,–,–,–,–,–,–,–,–,–,EC50 [22]: 738 pM; EC50 [23]: 94 pM
